Data on two molecules can be found in patent US12329814B2, “Combination of a substance modulating tumor immune microenvironment and immunotherapy for the treatment of cancer” (Boostimmune, Inc., priority 2022, dated 2025).

The subject of one assay is SL4 tumor cells. Put plainly: SL4 subcutaneous tumor in C57BL/6 mice treated with anti-TCTP antibody. As to conditions: 200 μg/mouse intraperitoneally every other day from Day 1, vs control IgG. The format is in vivo. How it is done: (§1) Peritoneal exudate cells (PECs) (2×10^5 cells) were stimulated with conditioned supernatant of SL4 cells containing antibody 55F3 or control IgG, and after 2 hours of stimulation, Cxcl1 mRNA levels were determined by RT-qPCR. As a result of blockade of extracellular TCTP with antibody 55F3, the expression of Cxcl1 mRNA was suppressed (FIG. 6A). Subsequently, SL4 cells were transplanted into C57BL/6 mice via subcutaneous injection, and 55F3 or control IgG (200 μg/mouse) was then intraperitoneally administered to the mice every other day, starting from Day 1 after the transplantation, and the volume of the tumor was measured. As a result, the proliferation speed of SL4 tumor cells was decreased by administration of 55F3 (FIG. 6B), and the amount of PMN-MDSCs in the TIME was decreased (FIG. 6C).

Another assay deals with B16F10 cells. Put plainly: B16F10 tumor treated with anti-TCTP antibody in combination with anti-PD-1 antibody. As to conditions: anti-TCTP 100 μg i.p. days 1, 4, 8, 11, 15, 18, 22 plus anti-PD-1 (BioXCell) 100 μg i.v. day 10, compared with checkpoint antibody alone, FIGS. 9A and 9B. The class given is in vivo, C57BL/6 mice. How it is done: The influence of the combination of anti-TCTP antibodies with an anti-PD-1 antibody on tumor suppression was also studied. B16F10 (1×10^5 cells in 50 μL PBS) cells were subcutaneously inoculated into C57BL/6 mice (Day 1). An anti-PD-1 antibody (BioXCell; 100 μg in 100 μL PBS) was administered intravenously ten days after the inoculation, and anti-TCTP antibodies 55F3 and 1-2-4 (each 100 μg in 100 μL PBS) were administered intraperitoneally in the mice on days 1, 4, 8, 11, 15, 18, and 22. As a result, the effect of suppressing tumor proliferation is improved by the combined administration of an anti-TCTP antibody and a PD-1 or CTLA-4 antagonist antibody, compared with the case of single administration of a PD-1 or CTLA-4 antagonist antibody alone (FIGS. 9A and 9B).

A further assay deals with B16F10 tumors. Put plainly: Flow cytometry of tumor-infiltrating immune cells, B16F10 tumors, anti-TCTP and anti-PD-1 antibodies. Conditions: B16F10, 12 days; 55F3 200 μg i.p. every 2 days and/or anti-PD-1 RMP1-14 10 mg/kg i.p. days 0, 3, 7, 10, 14; FIG. 11C. The format is in vivo, C57BL/6 mice. How it is done: (§2) Effect of the combination of anti-TCTP antibody and anti-PD-1 antibody on T cells and NK cells in the TIME was also studied. Tumor-infiltrating immune cells were collected from B16F10 and MC38 tumors treated with anti-TCTP antibody and/or anti-PD-1 antibody and were then analyzed by flow cytometry. B16F10 cells (5×10^5 cells) or MC38 cells (3×10^5 cells) were transplanted subcutaneously into C57BL/6 mice. Anti-PD-1 antibody RMP1-14 (BioXCell; 10 mg/kg) was administered intraperitoneally on days 0, 3, 7, 10, 14 after the inoculation, and anti-TCTP antibody 55F3 (200 μg in 200 μL PBS) was administered intraperitoneally in the mice every 2 days after the inoculation. After 15 days (MC38) or 12 days (B16F10) of transplantation, single cell suspensions were prepared from tumors and subjected to flow cytometry analysis.
Background: A flow cytometer gives signals particle by particle.

The subject of another assay is SL4 cells. Put plainly: SL4 tumor treated with anti-TCTP antibody in combination with anti-PD-1 antibody. The format is in vivo, C57BL/6 mice. Conditions: 55F3 i.p. every day from Day 1 plus anti-PD-1 monoclonal antibody (BioLegend) day 10, compared with PD-1 antagonist antibody alone, FIG. 10. How it is done:
This synergistic effect was also confirmed in the experiment using SL4 cells. SL4 cells were transplanted into C57BL/6 mice via subcutaneous injection, and thereafter, antibody 55F3 was intraperitoneally […] into the mice every day, starting from Day 1 after the transplantation. Ten days after the transplantation, an anti-PD-1 monoclonal antibody (BioLegend) was administered to the mice, and the tumor volume was then measured. As a result, it was confirmed that the effect of suppressing tumor proliferation is improved by the combined administration of an anti-TCTP antibody and a PD-1 antagonist antibody, compared with the case of single administration of a PD-1 antagonist antibody alone (FIG. 10).

Assay [1] relates to SL4 TCTP KO+hTCTP tumor cells. Put plainly: TCTP KI SL4 (TCTP KO+hTCTP) subcutaneous tumor in C57BL/6 mice treated with anti-TCTP antibodies. The class given is in vivo. Conditions: 100 μg intraperitoneally on days 1, 4, 8, 11, vs PBS; FIG. 7. How it is done: HEK293Ta cells (3×10^6 cells) were transfected with pCSII-EF-MCS-IRES2-Venus-hTCTP lentiviral expression vector and its helper vectors (pMDLg/p.RRE and pCMV-VSV-G-RSV-Rev). After 48 hours of the transfection, culture supernatants were collected and filtered (0.45 μm; Millipore). TCTP KO SL4 cells from Example 1 (1×10^6 cells) were infected using the supernatant. After infection, GFP-positive human TCTP-expressing TCTP KO SL4 cells (hereafter TCTP KI SL4 cells) were sorted using FACSMelody cell sorter. TCTP KI SL4 cells (2×10^5 cells/100 μL PBS), TCTP KO SL4 cells (2×10^5 cells/100 μL PBS), or parental SL4 cells (2×10^5 cells/100 μL PBS) were inoculated into C57BL/6 mice. After cell inoculation, tumor volumes were measured over time.
TCTP KI SL4 cells (TCTP KO+hTCTP; 5×10^5 cells in 100 μL PBS) from example 3 were subcutaneously inoculated into C57BL/6 mice (Day 0). Anti-TCTP (100 μg in 100 μL PBS) antibodies were administered intraperitoneally into the mice on days 1, 4, 8, and 11. As a control, 100 μL of PBS was administered. Tumor size was measured on days 3, 6, 9, and 11. As a result, the proliferation speed of SL4 TCTP KO+hTCTP tumor cells was decreased by administration of 55F3 or 1-2-4 (FIG. 7).

The next assay has as its system MC38 tumors. Put plainly: Flow cytometry of tumor-infiltrating immune cells, MC38 tumors, anti-TCTP and anti-PD-1 antibodies. The class given is in vivo, C57BL/6 mice. Conditions: MC38, 15 days; 55F3 200 μg i.p. every 2 days and/or anti-PD-1 RMP1-14 10 mg/kg i.p. days 0, 3, 7, 10, 14; FIG. 11C. As to the method: as §2
The next assay concerns the target T1, extracellular TCTP (Mus musculus, UniProt P63028).
T1 construct: stimulated with conditioned supernatant of SL4 cells containing antibody 55F3 or control IgG; endogenous in cells; host or cells: SL4 mouse colon carcinoma cells (conditioned supernatant), applied to mouse peritoneal exudate cells
T1 sequence (P63028 1-172): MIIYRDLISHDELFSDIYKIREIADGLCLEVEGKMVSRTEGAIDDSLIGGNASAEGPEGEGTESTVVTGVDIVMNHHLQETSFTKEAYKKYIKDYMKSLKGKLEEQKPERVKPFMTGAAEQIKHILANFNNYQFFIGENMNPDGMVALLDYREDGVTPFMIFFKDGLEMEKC
Put plainly: Cxcl1 mRNA in peritoneal exudate cells stimulated with SL4 conditioned supernatant (RT-qPCR). The format is cell-based. Conditions: PECs stimulated 2 hours with conditioned supernatant of SL4 cells containing antibody, vs control IgG; FIG. 6A. As to the method: as §1
Background: Real-time PCR tracks product formation cycle by cycle.

B1: 55F3: Mouse monoclonal anti-TCTP antibody; VH SEQ ID NO: 25, VL SEQ ID NO: 29; CDRs SEQ ID NO: 1-6 (antibody, listed as Mus musculus)
VH: MRVLILLWLFTAFPGILSDVQLQESGPGLVKPSQSLSLTCTATGYSIASDYAWNWIRQFPGNKLEWMGYINYSGSTGYNPSLKSRISITRDTSKNQFFLQLNSVTTEDTATYYCARFEAGYWGQGTTLTVSSAKTTPPSVYPLAPGSAAQTNSMVTLGCLVKGYFPEPVT
VL: MDMRTPAQFLGILLLWFPGIKCDIKMTQSPSSMSASLGERVTITCKASQDINRYLSWFQQKPGKSPKTLIYRANRLVDGVPSRFSGSGSGQDYSLTISSLEYGDMGIYYCLQYNEFPLTFGAGTKLELKRADAAPTVSIFPPSSEQLTSGGASVVCFLN
Turning to B1, in the assay with SL4 tumor cells (FIG. 6B), the “proliferation speed of SL4 tumor cells (tumor volume)” value was “decreased”. Also, in the assay on SL4 tumor cells (SL4 tumor, FIG. 6C), the “amount of PMN-MDSCs in the TIME” value is on record as “decreased”. Also, the “effect of suppressing tumor proliferation, combined administration with anti-PD-1 antibody” value with B16F10 cells and in the assay with SL4 cells was “improved” in each case. Also, the “CD8+ cells in tumor (abundance ratio)” value with B16F10 tumors and in the assay with MC38 tumors was “increased” in each case. Besides, in assay [1], the “proliferation speed of SL4 TCTP KO+hTCTP tumor cells (tumor size)” value is “decreased”. For the same molecule, the “expression of Cxcl1 mRNA” value in the assay with extracellular TCTP was “suppressed”.

B2: 1-2-4: Human monoclonal anti-TCTP antibody from CAMOUSE; VH SEQ ID NO: 28, VL SEQ ID NO: 32; CDRs SEQ ID NO: 19-24 (antibody, V domains shown)
VH: MDWTWRILFLVAAATGAHSQVQLVQSGAEVKKPGASVKVSCKASGYTFFSYAMHWVRQAPGQRLEWMGWINAGNGNTKYSQKFQDRVTITRDTSATTAYMELSSLRSEDTAVYYCASWVFDYWGQGTPVTVSS
VL: MRLLAQLLGLLMLWVPGSSGDIVMTQTPLSSLVTLGQPASISCRSSQSLVHRDGNTYLSWLQQRPGQPPRLLIYKISNRFFGVPDRFSGSGAGTDFTLKISRVEAEDVGVYYCMQATQFPHTFGQGTKLEIK
modifications: Variable region of antibody
For the molecule B2, the “effect of suppressing tumor proliferation, combined administration with anti-PD-1 antibody” value in the assay on B16F10 cells is given as “improved”. Further, the “proliferation speed of SL4 TCTP KO+hTCTP tumor cells (tumor size)” value in assay [1] is listed as “decreased”.
